Positions count from the first letter of the chain named.
Legend:
BSA control protein [1] = biological target: T1, BSA control protein (bovine, UniProt P02769 25-607); assay: phage ELISA, serially diluted phage on coated BSA
T1 construct: Unconjugated BSA used as negative control coating next to SSEA-4-BSA glycoconjugate; also called bovine serum albumin

BSA control protein [2] = biological target: T1, BSA control protein; assay: ELISA, serially diluted IgG on coated BSA, anti-human IgG-HRP

T1 sequence (P02769 25-607 limits assumed): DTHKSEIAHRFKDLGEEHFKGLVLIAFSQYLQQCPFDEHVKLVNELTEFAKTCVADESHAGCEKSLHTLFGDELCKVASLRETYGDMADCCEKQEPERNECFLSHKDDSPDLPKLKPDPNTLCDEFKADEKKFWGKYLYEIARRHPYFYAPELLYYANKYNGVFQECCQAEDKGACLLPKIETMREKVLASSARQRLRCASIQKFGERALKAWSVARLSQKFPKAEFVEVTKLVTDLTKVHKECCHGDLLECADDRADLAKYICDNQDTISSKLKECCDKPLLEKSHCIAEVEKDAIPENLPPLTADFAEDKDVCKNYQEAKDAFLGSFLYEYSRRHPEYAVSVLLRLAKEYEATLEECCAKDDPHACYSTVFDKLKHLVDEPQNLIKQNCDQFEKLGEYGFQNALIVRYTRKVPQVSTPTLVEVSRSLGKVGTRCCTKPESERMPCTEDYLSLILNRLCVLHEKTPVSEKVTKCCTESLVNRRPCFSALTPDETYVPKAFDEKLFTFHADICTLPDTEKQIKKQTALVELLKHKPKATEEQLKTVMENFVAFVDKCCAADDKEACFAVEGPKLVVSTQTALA

B1: 3rd scFv phage clone of humanized MC48 variant (scFv)
scFv: QVQLQESGPGLVKPSETLSLTCTVSGFSLTSYGVSWIRQPPGKGLEWIGVIWGEGSTNYHSVLISRLTISKDNSKSQVFLKLNSLQTDDTATYYCAMTGTAYWGQGTLVTVSSGGGGSGGGGSGGGGSQIVLTQSPAIMSASPGEKVTMTCSASSSVSYMHWYQQKPGLAPRLLIYDTSKLSSGVPGRFSGSGSGTSYSLTISRLEAEDAATYYCHQWSSSPHTFGGGTKVEIKR
notes: also called 3rd humanized MC48 scFv phage; hMC48 (3rd)
Q: Does B1 bind (BSA control protein [1])?
A: no binding

B2: 4th scFv phage clone of humanized MC48 variant (scFv)
scFv: QVQLKESGPGLVAPSQSLSITCTVSGFSLTSYGVSWIRQPPGKGLEWIGVIWGEGSTNYHSVLISRLTISKDNSKSQVFLKLNSLQTDDTATYYCAMTGTAYWGQGTLVTVSSGGGGSGGGGSGGGGSQIVLTQSPAIMSASPGEKVTMTCSASSSVSYMHWYQQKSGTSPKRWIYDTSKLSSGVPGRFSGSGSGTSYSLTISRLEAEDAATYYCHQWSSSPHTFGGGTKVEIKR
notes: also called 4th humanized MC48 scFv phage; hMC48 (4th)
Q: Does B2 bind (BSA control protein [1])?
A: no binding

B3: 3rd humanized MC41 IgG (antibody, V domains shown)
VH: QVQLKESGPGLVAPSKTLSLTCTVSGFSLSSQGVYWIRQPPGKGLEWIGAIWAGGSTNYNSALMSRLSISKDNSKSQVFLKMNSLQTDDTAMYYCARVDGYRGYNMDYWGQGTSVTVSS
VL: ENVLTQSPAIMSATPGEKVTMTCSASSSVSYMHWYQQKSSTSPKLWIYDTSKLASGVPGRFSGSGSGNSYTLTISSMEAEDVATYYCFQGSGYPLTFGAGTKLEIKR
notes: also called humanized 3rd MC41
Q: Does B3 bind (BSA control protein [2])?
A: no binding

B4: 2nd humanized MC41 IgG (antibody, V domains shown)
VH: B3 VH with S114L
VL: B3 VL with M32L
notes: also called hMC41; humanized 2nd MC41
Q: Does B4 bind (BSA control protein [2])?
A: no binding

B5: chimeric MC41 (chMC41) (antibody, V domains shown)
VH: B3 VH with T17S, L20I, I37V, I48L
VL: B3 VL with T14S, T71S, I105L
notes: Intact chimeric IgG of MC41
Q: Does B5 bind (BSA control protein [2])?
A: no binding

— patent publication US20160289340A1 (published 2016)
